Results reported in publication PMC12098658, “JMY powers dendritogenesis and is regulated by CaM revealing a general, critical principle in neuromorphogenesis” (Communications Biology, 2025).

Tests used:
Conditions in all cases: both partners purified
Sepharose 4B-coupled CaM = molecular target: T1, Sepharose 4B-coupled CaM (UniProt P0DP23 1-149, coupled to Sepharose 4B); assay: pull-down; purified GST-JMY WH2#1 or GST with immobilised CaM; IP buffer with 150 mM NaCl and 2 µM Ca2+ (1 mM EGTA for comparison); immunoblot
T1 construct: calmodulin (CaM), bought coupled to Sepharose 4B; also called immobilized CaM; CaM matrix; source: bought: GE Healthcare (coupled to Sepharose 4B)

untagged recombinant CaM = molecular target: T2, untagged recombinant CaM (UniProt P0DP23 1-149); assay: pull-down; in vitro reconstitution: GST-JMY WH2#1 immobilised, untagged CaM and rabbit skeletal muscle α-actin together; 10 mM HEPES pH 7.4, 250 mM NaCl, 0.1 mM MgCl2, 1% Triton X-100, with 1 mM EGTA or 20 µM Ca2+; quantitative fluorescence immunoblot
T2 construct: calmodulin (CaM), subcloned from Mito-mCherry-CaM into pGEX-6P; A few vector residues probably remain after PreScission cleavage; also called calmodulin; source: E. coli BL21, purified as GST-CaM (pGEX-6P), GST removed with PreScission Protease

[1] = molecular target: rabbit skeletal muscle actin (rabbit, UniProt P68135 1-377); assay: as above

Measured: binding result

B1: GST-JMY WH2#1 (domain or fragment)
chain: GNERSIPKSASAPAAHLFDSSQLVSARKKLRKTVEGLQRRRVS
notes: Mus musculus JMY, NP_067285.2, residues 841-883 (subcloned from GFP-JMY WH2#1 into pGEX-4T1); pGEX-4T1 by surmise puts GST at the N-terminus; also called first WH2 domain of JMY and flanking regions; source: E. coli BL21, purified (glutathione sepharose)
binds: all assays above
